Data: US20120263675A1 (REGENTS OF THE UNIVERSITY OF MICHIGAN, published 2012)
Square brackets hold non-standard residues; d marks the D form. Ends that are not written are not given here. * marks the point of attachment. 5FAM = O=C1OC2(c3ccc(O)cc3Oc3cc(O)ccc32)c2ccc(C(=O)*)cc21; Abu = CC[C@H](N)C(=O)O

Legend:
[1] = target: T1, Human XIAP BIR3-only (residues 241-356) with N-terminal 6x His tag (human, UniProt P98170 241-356); test: fluorescence polarization, tracer binding to XIAP BIR3
T1 construct: range 241-356; Recombinant, produced in E. coli BL21(DE3); also called XIAP BIR3 protein; not shown: N-terminal 6x His tag from pET28 vector
T1 sequence (P98170 241-356): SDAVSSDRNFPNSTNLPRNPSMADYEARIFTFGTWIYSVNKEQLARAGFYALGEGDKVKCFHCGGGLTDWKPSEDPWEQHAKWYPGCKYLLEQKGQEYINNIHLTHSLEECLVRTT
From the text: The FP-based assay for XIAP BIR3 protein was described in detail previously (Nikolovska-Coleska et al., Anal. Biochem. 332:261-73 (2004)). Briefly, 5-carboxyfluorescein was coupled to the lysine side chain of a mutated Smac peptide with the sequence (AbuRPFK-Fam) and this fluorescently tagged peptide (named SM5F) was used as the fluorescent tracer in FP-based binding assay to XIAP BIR3.

[2] = target: T2, Human cIAP-1 BIR3-only (residues 253-363) (human, UniProt Q13490 253-363); test: fluorescence polarization, tracer binding to cIAP-1 BIR3
T2 construct: range 253-363; Cloned into pHis-TEV vector, produced and purified as for XIAP BIR3; also called cIAP-1 BIR3 protein; not shown: tag from pHis-TEV vector
T2 sequence (Q13490 253-363): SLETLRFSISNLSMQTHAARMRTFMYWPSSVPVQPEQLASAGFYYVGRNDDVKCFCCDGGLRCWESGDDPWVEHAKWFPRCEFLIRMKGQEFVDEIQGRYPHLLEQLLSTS

[3] = target: T3, Human cIAP2 BIR3-only (residues 238-349) (human, UniProt Q13489 238-349); test: fluorescence polarization, tracer binding to cIAP-2 BIR3
T3 construct: range 238-349; Cloned into pHis-TEV vector, produced and purified as for XIAP BIR3; also called cIAP-2 BIR3 protein; not shown: tag from pHis-TEV vector
T3 sequence (Q13489 238-349): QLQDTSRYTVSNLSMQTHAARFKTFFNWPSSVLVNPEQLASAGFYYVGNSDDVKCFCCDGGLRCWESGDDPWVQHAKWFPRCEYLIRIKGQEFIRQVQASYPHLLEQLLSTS

- Kd [1]: 17.9 nM
- Kd [2]: 4.1 nM
- Kd [3]: 6.6 nM
B1: SM5F, fluorescently tagged mutated Smac peptide (AbuRPFK-Fam) (peptide)
peptide: [Abu]RPFK(5FAM)
notes: Mutated Smac N-terminal peptide used as tracer in the FP assays; also called fluorescent tracer
